{"source": "patent US12201699", "about": "“Compositions and methods for promoting homology directed repair” (Editas Medicine, Inc.)", "binders": {"B1": {"name": "ssODN-179 (control) (ssDNA)", "DNA": "TGCTTCTGACACAACTGTGTTCACTAGCAACCTCAAACAGACACCATGGTGCATCTGACTCGTGTGGAGAAGTCGGCCGTTACTGCCCTGCAGGGCAAGCTTAACGTGGATGAAGTTCGTGGTGAGGCCCTGGGCAGGTTGGTATCAAGGTTACAAGACAGGTTTAAGGAGACCAATAG"}, "B2": {"name": "ssODN-109 (control) (ssDNA)", "DNA": "AACAGACACCATGGTGCATCTGACTCGTGTGGAGAAGTCGGCCGTTACTGCCCTGCAGGGCAAGCTTAACGTGGATGAAGTTCGTGGTGAGGCCCTGGGCAGGTTGGTA"}}, "target": "Tet Repressor (TetR) (UniProt P04483 P04483:1-207)", "sequence (P04483 whole entry, one chain of several)": "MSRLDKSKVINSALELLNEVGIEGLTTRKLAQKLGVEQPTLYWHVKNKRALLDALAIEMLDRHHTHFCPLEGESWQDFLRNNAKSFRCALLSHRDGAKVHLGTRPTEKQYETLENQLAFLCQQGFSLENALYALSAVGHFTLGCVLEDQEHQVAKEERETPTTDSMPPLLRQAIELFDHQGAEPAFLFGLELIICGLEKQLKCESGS", "assay": "EMSA; lacks Tet operator; 500 nM TetR, 50 nM DNA, 300 mM NaCl, pH 7.7", "conditions": "chain copies: 2 (inferred)", "description": "The nucleotide sequence to which the Tet Repressor protein binds, typically consists of several repeats (5 or more) of the Tet Operator (TetO)19 base pair sequence, each followed by a 17 bp spacer. Here, we evaluated the binding of the Tet repressor protein to several Tet Operator sequence-containing variants that included spacer sequences of differing sizes, or no spacer sequences. Specifically, we investigated […] To test the binding capacity of the Tet Operator sequence-containing variants experimentally, 500 nM of recombinant TetR protein (Imgen BioSciences, Inc.; Cat. No. P-1002-0.5 mg) was incubated with 50 nM of template DNA in binding buffer (50 mM HEPES, 20% glycerol, 300 mM NaCl, pH 7.7) and protein binding to the Tet Operator sequence-containing variants was analyzed using an electrophoretic mobility shift assay using a 10% polyacrylamide gel (FIG. 8B)."}
{"binder": "B1", "values": [{"measurement": "binding result", "value": "no binding"}]}
{"binder": "B2", "values": [{"measurement": "binding result", "value": "no binding"}]}
